{"source": "paper PMC6650547", "about": "(2019)", "binders": {"B1": {"name": "SUDV VP35 wild-type chaperone domain peptide (residues 1 to 34) (peptide)", "peptide": "MQQDRTYRHHGPEVSGWFSEQLMTGKIPLTEVFV"}}, "target": "T1, His-SUDV-NP(34-367) (Sudan virus (SUDV), strain Boniface, UniProt Q9QP77 34-367)", "T1 chain": "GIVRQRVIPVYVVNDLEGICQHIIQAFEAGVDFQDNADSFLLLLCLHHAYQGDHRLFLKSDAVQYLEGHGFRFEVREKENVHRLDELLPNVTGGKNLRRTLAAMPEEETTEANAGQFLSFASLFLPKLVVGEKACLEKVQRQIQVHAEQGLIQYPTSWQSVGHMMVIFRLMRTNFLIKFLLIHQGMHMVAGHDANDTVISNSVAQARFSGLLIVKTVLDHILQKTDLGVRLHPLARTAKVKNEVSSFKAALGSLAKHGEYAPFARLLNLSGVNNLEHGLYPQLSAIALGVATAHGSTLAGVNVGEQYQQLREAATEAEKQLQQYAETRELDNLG", "assay": "BLI", "data": [{"binder": "B1", "values": [{"measurement": "koff", "value": 0.00583, "unit": "s⁻¹"}]}]}
